Reference: article PMC3953403, “Drosophila SNAP-29 Is an Essential SNARE That Binds Multiple Proteins Involved in Membrane Traffic” (PLoS ONE, 2014)
Values belong to the molecule of their own block, whether it stands above or below them.

Biological target: T1, GST-dSNAP-29 (Drosophila, UniProt Q9W1I8 1-284)
T1 construct: Drosophila SNAP-29 (CG11173, ubisnap/usnp), full-length cDNA amplified from EST clone LD17127 and subcloned into pGEX-KG; predicted mass 32 kDa; Vector pGEX-KG; also called GST-SNAP-29; Drosophila SNAP-29; source: coupled to glutathione beads
T1 sequence (looked up): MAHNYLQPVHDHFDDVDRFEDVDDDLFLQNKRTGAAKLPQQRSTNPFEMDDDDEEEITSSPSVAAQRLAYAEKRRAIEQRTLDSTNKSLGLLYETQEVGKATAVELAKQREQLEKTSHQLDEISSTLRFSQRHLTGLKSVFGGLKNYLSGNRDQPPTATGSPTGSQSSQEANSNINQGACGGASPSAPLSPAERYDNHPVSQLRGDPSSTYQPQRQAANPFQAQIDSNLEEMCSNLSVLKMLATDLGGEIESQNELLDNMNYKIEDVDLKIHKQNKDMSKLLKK
Experiment: pull-down; 0.5 mg GST fusion or GST on 120 uL glutathione beads, incubated with pre-cleared S2 cell lysate (PLC or NP40 lysis buffer, 0.1% gelatin, 0.1% BSA); washes 50 mM HEPES pH 7.5, 150 mM NaCl, 2 mM EDTA; western blot
Conditions: for percent recovered from the lysate: one partner purified

Molecule: dEHD1, endogenous (natural protein)
percent pulled down from the lysate: 12%

B1: dsyntaxin 16, endogenous (natural protein, UniProt Q9VR90 1-352, looked up)
chain: MTSRNLTEVFVIMRNNASKNRNHYDDRRGSDAERLLKHSVREAEEGLELQDDYGTPPAWLDKFEEAQYTMSKIKPKLDELGSLHARHLLRPAFDDQRDDECDIEVLSQIVSKLITSTHRHIQCVRSSIGVGSKMEQCLTVNAVHCALLQLQELTVKFRASQNAYLLQLNSREERSQKYFDDGGGAGAGDVFTNVELGEQSAENFVDSFDNFLQPPAEGKSGNGYLFEDDEQAIDDHFQRPPASRMTQQQLLLFEEENTRVAQHREQEVTKIVKSIYDLNDIFKDLGHMVQEQGTVLDRIDYNVEQTQTRVSEGLRQLHKAEMYQRKNRKMCVILVLAAVTFFMLLLLILTKL
notes: Drosophila syntaxin 16, endogenous in S2 cells (pull-down) and in embryos (co-IP); also called dSyx16; dSyx 16; source: endogenous, S2 cell lysate; endogenous, Oregon R embryo lysate
percent recovered from the lysate: 4%

B3: dSNAP (Drosophila soluble NSF attachment protein), endogenous (natural protein, Drosophila (endogenous in S2 cells), UniProt Q23983 1-292, looked up)
chain: MGDNEQKALQLMAEAEKKLTQQKGFLGSLFGGSNKVEDAIECYQRAGNMFKMSKNWTKAGECFCEAATLHARAGSRHDAGTCYVDASNCYKKVDVESAVNCLMKSIDIYTDMGRFTMAAKHHQSIAEMYESDPNNLAKSIQHYEQAADYFKGEESVSSANKCMLKVAQYAAQLEDYEKAISIYEQVAASSLESSLLKYSAKEYFFRAALCHLSVDLLNAQHAIEKYAQQYPAFQDSREFKLIKVLCENLEEQNIEGFTEAVKDYDSISRLDQWYTTILLRIKKAADEDPDLR
notes: Drosophila SNAP (soluble NSF attachment protein), endogenous in Schneider S2 cells; also called Drosophila SNAP; source: endogenous, S2 cell lysate
percent recovered from the lysate: ~7%

Further lines, results first:

percent pulled down from the lysate: 15%
Molecule: DAP160, endogenous (natural protein)

percent recovered from the lysate: 6%
B2: dsyntaxin1, endogenous (natural protein, UniProt Q24547 1-291, looked up)
chain: MTKDRLAALHAAQSDDEEETEVAVNVDGHDSYMDDFFAQVEEIRGMIDKVQDNVEEVKKKHSAILSAPQTDEKTKQELEDLMADIKKNANRVRGKLKGIEQNIEQEEQQNKSSADLRIRKTQHSTLSRKFVEVMTEYNRTQTDYRERCKGRIQRQLEITGRPTNDDELEKMLEEGNSSVFTQGIIMETQQAKQTLADIEARHQDIMKLETSIKELHDMFMDMAMLVESQGEMIDRIEYHVEHAMDYVQTATQDTKKALKYQSKARRKKIMILICLTVLGILAASYVSSYFM
notes: Drosophila syntaxin 1, endogenous in S2 cells (pull-down) and in embryos (co-IP); also called dSyx1; source: endogenous, S2 cell lysate; endogenous, Oregon R embryo lysate
